This is an account of results in US20240199761A1 (AstraZeneca / MedImmune, published 2024).

Test [1] has as its target T1, cynomolgus PAD2 haplotype N55D, T63A, N82S (9.4%) (cynomolgus, UniProt G7NUR0 1-665).
T1 chain: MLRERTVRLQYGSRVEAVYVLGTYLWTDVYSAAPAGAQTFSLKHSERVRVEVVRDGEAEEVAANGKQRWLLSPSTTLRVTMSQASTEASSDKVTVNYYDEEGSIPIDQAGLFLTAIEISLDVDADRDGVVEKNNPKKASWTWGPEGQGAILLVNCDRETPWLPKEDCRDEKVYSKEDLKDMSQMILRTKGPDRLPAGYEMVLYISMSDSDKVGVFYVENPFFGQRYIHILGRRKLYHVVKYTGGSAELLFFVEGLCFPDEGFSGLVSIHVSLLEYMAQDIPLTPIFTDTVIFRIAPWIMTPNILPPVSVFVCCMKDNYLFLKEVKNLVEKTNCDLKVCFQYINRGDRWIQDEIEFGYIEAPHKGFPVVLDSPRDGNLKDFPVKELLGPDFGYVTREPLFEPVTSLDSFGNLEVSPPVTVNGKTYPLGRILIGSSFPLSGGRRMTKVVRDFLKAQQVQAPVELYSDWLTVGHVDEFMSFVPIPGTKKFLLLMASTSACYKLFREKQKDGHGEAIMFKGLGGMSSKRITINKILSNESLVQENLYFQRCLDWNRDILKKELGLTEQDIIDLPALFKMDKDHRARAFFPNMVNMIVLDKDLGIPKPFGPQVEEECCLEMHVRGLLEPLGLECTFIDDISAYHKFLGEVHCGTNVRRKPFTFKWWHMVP
Put plainly: SPR; antibody captured on C1-Protein G', PAD2 flowed over. For orientation: In SPR one partner is held on a chip, and binding of the other changes the refractive index at the surface.

The target in test [2] is T2, cynomolgus PAD2 haplotype N55D, N82S (37.5%) (cynomolgus, UniProt G7NUR0 1-665).
T2 chain: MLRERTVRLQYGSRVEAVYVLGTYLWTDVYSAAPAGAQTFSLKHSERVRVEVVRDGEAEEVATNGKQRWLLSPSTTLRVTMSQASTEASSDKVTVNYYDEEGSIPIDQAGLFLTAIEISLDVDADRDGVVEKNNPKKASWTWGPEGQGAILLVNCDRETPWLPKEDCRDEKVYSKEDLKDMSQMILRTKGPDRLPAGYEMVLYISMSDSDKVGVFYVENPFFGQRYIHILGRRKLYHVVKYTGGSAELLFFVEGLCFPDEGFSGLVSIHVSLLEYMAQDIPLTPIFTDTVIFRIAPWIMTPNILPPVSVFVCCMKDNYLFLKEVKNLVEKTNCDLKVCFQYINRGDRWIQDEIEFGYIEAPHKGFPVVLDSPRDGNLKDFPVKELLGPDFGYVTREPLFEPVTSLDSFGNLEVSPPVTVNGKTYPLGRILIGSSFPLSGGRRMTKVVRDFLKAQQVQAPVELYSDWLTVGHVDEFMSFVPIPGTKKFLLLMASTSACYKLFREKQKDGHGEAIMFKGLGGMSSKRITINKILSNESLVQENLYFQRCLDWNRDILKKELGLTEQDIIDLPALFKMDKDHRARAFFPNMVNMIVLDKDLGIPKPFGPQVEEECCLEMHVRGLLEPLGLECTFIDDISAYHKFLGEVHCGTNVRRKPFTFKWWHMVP
The test is described as above.

The next test addresses T3, recombinant mouse PAD2 (mouse, UniProt Q08642 1-673).
T3 construct: Recombinant and tagged
Put plainly: ratio of SPR KDs, mouse PAD2 against human PAD2; antibody captured on C1-Protein G', PAD flowed over.

The target in another test is recombinant human PAD2 (human, UniProt Q9Y2J8 1-665). The test can be described thus: cell-based or functional assay.
A further test concerns the target T4, huFcRn (human, UniProt P55899 24-297; P61769 21-119, limits assumed).
T4 construct: also called human neonatal Fc receptor
The test can be described thus: huFcRn affinity chromatography, pH gradient elution.

In test [3] the target is T5, cynomolgus PAD2, recombinant, tags at the N-terminus (cynomolgus, UniProt G7NUR0 1-665, enzymatically biotinylated on an Avi-tag where captured on streptavidin).
T5 construct: also called Cyno PAD2; not shown: N-terminal tags incl; Avi-tag
Put plainly: SPR; biotinylated antibody on C1-streptavidin, PAD2 flowed over.

Test [4] concerns the target T6, human PAD2, recombinant, tags at the N-terminus (human, UniProt Q9Y2J8 1-665, enzymatically biotinylated on an Avi-tag where captured on streptavidin).
T6 construct: not shown: N-terminal tags incl; Avi-tag
The description is as above.

Test [5] has as its target T5, cynomolgus PAD2, recombinant, tags at …. The test is described as above. The source holds these as a separate data set.
The target of test [6] is T6, human PAD2, recombinant, tags at the …. The test is described as above. This is another data set of the same source.
For test [7], the target named is T5, cynomolgus PAD2, recombinant, tags at …. Put plainly: SPR; antibody on C1-Protein G', PAD2 flowed over.
For test [8], the target named is T6, human PAD2, recombinant, tags at the …. Put plainly: SPR; antibody on C1-Protein G', PAD2 flowed over.
The target of test [9] is T7, mouse PAD2, recombinant, tags at the N-terminus (mouse, UniProt Q08642 1-673, enzymatically biotinylated on an Avi-tag where captured on streptavidin).
T7 construct: not shown: N-terminal tags incl; Avi-tag
The test can be described thus: SPR; antibody on C1-Protein G', PAD2 flowed over.

For test [10], the target named is T5, cynomolgus PAD2, recombinant, tags at …. Put plainly: SPR; antibody on C1-Protein G', PAD2 flowed over. The source holds these as a separate data set.
The target of test [11] is T6, human PAD2, recombinant, tags at the …. The test can be described thus: SPR; antibody on C1-Protein G', PAD2 flowed over. The source holds these as a separate data set.
For test [12], the target named is T7, mouse PAD2, recombinant, tags at the …. Put plainly: SPR; antibody on C1-Protein G', PAD2 flowed over. This is another data set of the same source.
In another test the target is T8, Human PAD1 (Homo sapiens, UniProt Q9ULC6).
T8 construct: biotinylated, captured on a streptavidin plate; also called biotinylated PAD1
T8 sequence (single chain, looked up): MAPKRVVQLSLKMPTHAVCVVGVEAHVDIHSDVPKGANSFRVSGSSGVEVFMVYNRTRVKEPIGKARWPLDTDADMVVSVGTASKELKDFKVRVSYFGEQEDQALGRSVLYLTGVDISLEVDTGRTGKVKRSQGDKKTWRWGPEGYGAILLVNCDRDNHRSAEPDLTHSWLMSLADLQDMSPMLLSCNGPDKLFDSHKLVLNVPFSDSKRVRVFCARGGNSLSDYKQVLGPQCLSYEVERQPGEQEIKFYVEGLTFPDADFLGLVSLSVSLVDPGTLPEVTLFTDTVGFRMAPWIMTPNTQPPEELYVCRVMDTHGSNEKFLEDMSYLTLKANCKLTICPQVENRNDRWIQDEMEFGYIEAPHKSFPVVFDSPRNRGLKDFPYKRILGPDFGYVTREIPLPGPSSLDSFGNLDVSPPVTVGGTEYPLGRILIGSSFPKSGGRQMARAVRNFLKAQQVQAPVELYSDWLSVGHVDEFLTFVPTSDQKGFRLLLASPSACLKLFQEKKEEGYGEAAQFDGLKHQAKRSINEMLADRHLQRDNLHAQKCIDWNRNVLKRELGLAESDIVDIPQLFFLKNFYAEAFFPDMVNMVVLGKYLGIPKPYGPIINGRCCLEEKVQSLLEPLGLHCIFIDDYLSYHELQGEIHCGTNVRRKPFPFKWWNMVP
The test can be described thus: specificity ELISA: biotinylated PAD on a streptavidin plate, detection with anti-human IgG Fc HRP, Binding (RFU); antibody concentration not given. A general note: ELISA stands for enzyme-linked immunosorbent assay.

In a further test the target is T9, Human PAD3 (Homo sapiens, UniProt Q9ULW8).
T9 construct: biotinylated, captured on a streptavidin plate; also called biotinylated PAD3
T9 sequence (single chain, looked up): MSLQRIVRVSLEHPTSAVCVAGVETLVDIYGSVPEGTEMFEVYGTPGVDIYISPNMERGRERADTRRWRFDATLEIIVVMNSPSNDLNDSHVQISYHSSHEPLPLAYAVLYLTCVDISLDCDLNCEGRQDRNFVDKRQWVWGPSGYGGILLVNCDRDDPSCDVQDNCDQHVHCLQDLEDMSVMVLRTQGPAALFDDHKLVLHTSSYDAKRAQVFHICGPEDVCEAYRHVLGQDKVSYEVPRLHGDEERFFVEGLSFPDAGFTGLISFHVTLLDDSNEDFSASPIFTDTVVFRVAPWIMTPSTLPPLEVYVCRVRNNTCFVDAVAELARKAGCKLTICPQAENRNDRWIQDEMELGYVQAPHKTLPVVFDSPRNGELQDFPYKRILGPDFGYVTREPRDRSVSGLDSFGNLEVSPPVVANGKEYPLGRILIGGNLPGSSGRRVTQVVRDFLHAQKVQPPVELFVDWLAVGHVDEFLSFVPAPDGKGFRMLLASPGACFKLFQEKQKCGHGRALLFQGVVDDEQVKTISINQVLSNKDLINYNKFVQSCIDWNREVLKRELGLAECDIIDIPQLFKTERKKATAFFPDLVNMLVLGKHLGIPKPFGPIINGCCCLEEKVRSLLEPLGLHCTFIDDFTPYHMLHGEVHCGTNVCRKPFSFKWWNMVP
The test is described as above.

Like-named read-outs stand apart in the source and are kept apart here.

B1: Clone 08 (Bis3, TM; Fab anti-PAD2, scFv anti-PAD4) (bispecific antibody, human IgG1, lambda)
heavy: not shown
light: SYVLTQPPSVSVSPGQTASITCSGDKVGDKYVSWYQQKPGQSPVLVIYQDSQRPSGIPERFSGSNSGNTATLTISGTQAMDEADYYCQTWAPDVLLFGSGTKVTVLGQPKAAPSVTLFPPSSEELQANKATLVCLISDFYPGAVTVAWKADSSPVKAGVETTTPSKQSNNKYAASSYLSLTPEQWKSHRSYSCQVTHEGSTVEKTVAPTECS
notes: Bivalent bispecific IgG-HC-scFv; also called Clone 8*; Clone 8^#
In test [1], B1 registered a Kd of 0.0434 nM, a koff of 6.76e-05 s⁻¹ and a kon of 1.58e+06 M⁻¹ s⁻¹. In test [2], this molecule gave a Kd of 6.4 pM, a koff of 2.65e-05 s⁻¹ and a kon of 4.23e+06 M⁻¹ s⁻¹. The “fold difference in KD, mouse/human” value in the test with recombinant mouse PAD2 was 1.1 fold. Also, the “Potency (IC50), Histone-H3 assay” value in the test with recombinant human PAD2 was 94 pM. In addition, in the test with huFcRn, the “HPLC retention” value came to 17 min and the Relative retention is -0.207.

B2: Clone 08, Bis3 anti-PAD2 Fab / anti-PAD4 scFv, Fc TM (bispecific antibody, human IgG1, lambda)
heavy: not shown
light: SYVLTQPPSVSVSPGQTASITCSGDKVGDKYVSWYQQKPGQSPVLVIYQDSQRPSGIPERFSGSNSGNTATLTISGTQAMDEADYYCQTWAPDVLLFGSGTKVTVLGQPKAAPSVTLFPPSSEELQANKATLVCLISDFYPGAVTVAWKADSSPVKAGVETTTPSKQSNNKYAASSYLSLTPEQWKSHRSYSCQVTHEGSTVEKTVAPTECS
notes: Bivalent for PAD2 and for PAD4; In the rows marked ^# the antibody was chemically biotinylated; also called Clone 8*; Clone 8^#
Regarding B2, the Kd came out at 0.0121 nM in test [3]; 7.51 pM in test [4]; 0.0121 nM in [5]; 7.51 pM in [6]; 0.0167 nM in test [7]; 6.65 pM in test [8]. Besides, the Kd was 7.19 pM in [9], 0.0167 nM in test [10], 6.65 pM in test [11] and 7.19 pM in test [12]. For the same molecule, the koff in test [5] came out at 0.0001 s⁻¹; in [6], 4.74e-05 s⁻¹; in [7] it was 4.52e-05 s⁻¹; in [8], 2.97e-05 s⁻¹; in test [9] it was 3.31e-05 s⁻¹. In addition, the kon was 9.48e+06 M⁻¹ s⁻¹ in test [5]; 5.88e+06 M⁻¹ s⁻¹ in test [6]; 2.74e+06 M⁻¹ s⁻¹ in test [7]; 4.48e+06 M⁻¹ s⁻¹ in [8]; 4.65e+06 M⁻¹ s⁻¹ in test [9].

B3: Clone 12 (Bis3, FQQ-YTE; PAD2 Fab, PAD4 scFv) (bispecific antibody, human IgG1, lambda)
heavy: not shown
light: SYVLTQPPSVSVSPGQTASITCSGDKVGDKYVSWYQQKPGQSPVLVIYQDSQRPSGIPERFSGSNSGNTATLTISGTQAMDEADYYCQTWAPDVLLFGSGTKVTVLGQPKAAPSVTLFPPSSEELQANKATLVCLISDFYPGAVTVAWKADSSPVKAGVETTTPSKQSNNKYAASSYLSLTPEQWKSHRSYSCQVTHEGSTVEKTVAPTECS
notes: also called PAD240012
For B3, the binding result in the test with Human PAD1 and with Human PAD3 was “no binding” throughout.

Usually Kd stands for the equilibrium constant for the complex coming apart. By koff is commonly meant the rate constant with which the complex falls apart. In general, kon refers to the rate constant with which the complex forms.
